Results from paper PMC7949130.

How the values were obtained:
[1] = molecular target: nonsulfated human cationic trypsin purified from E. coli (human); assay: equilibrium binding assay; equilibrium dissociation constant of ecotin on human trypsins, 15 h of incubation; further conditions not told for ecotin
[2] = molecular target: native sulfated human cationic trypsin purified from pancreatic juice (human); assay: as above

Kd [1]: 8.1 pM
Kd [2]: 5.6 pM
Substance: ecotin (from UniProt P23827 21-162) (natural protein)
